# Reference: article PMC7704052
# Biological target: Flag-tagged MxA wildtype (human myxovirus resistance protein A) (human) (UniProt P20591)
substance,measurement,value
"SiAr126 nucleoprotein (NP), wildtype, from expression plasmid (natural protein)",SiAr126 polymerase reconstitution (minigenome firefly luciferase) in 293T cells: inhibition by co-expressed MxA compared with the inactive MxA(T103A),90%
